{"source": "patent US7018836", "biological_target": "Drosophila RNA polymerase II large subunit, P04052", "sequence (P04052 whole entry)": "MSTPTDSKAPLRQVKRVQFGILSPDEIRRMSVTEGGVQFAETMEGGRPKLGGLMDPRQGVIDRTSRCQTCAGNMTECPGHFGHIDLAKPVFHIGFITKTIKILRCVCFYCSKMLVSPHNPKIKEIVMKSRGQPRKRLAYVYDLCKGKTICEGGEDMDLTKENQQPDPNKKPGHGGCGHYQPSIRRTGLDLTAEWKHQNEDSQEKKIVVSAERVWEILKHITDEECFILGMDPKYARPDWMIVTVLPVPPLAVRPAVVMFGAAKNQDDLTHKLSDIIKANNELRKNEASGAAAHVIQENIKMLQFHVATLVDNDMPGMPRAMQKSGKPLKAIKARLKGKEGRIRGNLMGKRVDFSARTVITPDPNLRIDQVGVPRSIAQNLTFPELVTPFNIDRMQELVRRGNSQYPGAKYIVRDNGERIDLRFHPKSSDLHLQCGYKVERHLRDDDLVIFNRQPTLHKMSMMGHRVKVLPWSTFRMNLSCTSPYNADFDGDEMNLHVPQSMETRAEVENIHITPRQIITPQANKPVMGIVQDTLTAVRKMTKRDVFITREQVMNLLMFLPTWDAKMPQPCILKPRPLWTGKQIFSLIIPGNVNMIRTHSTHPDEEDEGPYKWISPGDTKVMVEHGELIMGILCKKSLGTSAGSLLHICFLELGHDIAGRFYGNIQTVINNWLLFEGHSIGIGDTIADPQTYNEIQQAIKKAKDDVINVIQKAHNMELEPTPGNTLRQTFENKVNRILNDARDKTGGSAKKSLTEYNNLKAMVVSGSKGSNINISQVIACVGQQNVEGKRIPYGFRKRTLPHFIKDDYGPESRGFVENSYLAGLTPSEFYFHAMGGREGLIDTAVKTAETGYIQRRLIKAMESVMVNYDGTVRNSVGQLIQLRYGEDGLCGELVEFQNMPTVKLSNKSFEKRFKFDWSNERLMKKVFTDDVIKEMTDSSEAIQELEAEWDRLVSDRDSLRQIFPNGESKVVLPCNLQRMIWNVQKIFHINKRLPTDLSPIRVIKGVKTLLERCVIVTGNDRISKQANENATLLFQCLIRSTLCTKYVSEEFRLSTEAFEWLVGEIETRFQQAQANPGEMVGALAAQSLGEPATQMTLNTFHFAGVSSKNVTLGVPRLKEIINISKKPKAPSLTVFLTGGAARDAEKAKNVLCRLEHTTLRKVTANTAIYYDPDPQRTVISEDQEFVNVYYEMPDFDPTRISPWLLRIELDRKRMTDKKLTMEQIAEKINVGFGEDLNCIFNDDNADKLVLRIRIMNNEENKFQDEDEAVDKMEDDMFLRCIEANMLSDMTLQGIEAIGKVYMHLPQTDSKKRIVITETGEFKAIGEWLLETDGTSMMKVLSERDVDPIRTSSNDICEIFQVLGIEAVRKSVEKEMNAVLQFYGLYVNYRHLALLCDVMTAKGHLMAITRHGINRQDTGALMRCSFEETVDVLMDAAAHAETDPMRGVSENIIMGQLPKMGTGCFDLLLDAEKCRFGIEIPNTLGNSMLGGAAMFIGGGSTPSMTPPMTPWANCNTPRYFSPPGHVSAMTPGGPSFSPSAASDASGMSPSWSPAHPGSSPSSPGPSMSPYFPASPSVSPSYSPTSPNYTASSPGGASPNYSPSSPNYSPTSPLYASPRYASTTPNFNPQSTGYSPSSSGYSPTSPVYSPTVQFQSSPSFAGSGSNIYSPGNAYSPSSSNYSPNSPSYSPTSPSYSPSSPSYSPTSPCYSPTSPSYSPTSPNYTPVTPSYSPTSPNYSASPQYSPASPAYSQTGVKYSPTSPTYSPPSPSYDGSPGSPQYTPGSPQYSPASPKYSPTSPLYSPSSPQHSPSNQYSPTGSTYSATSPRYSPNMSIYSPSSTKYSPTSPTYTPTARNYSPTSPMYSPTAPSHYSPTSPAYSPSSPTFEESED", "data": [{"protein": "Drosophila P-TEFb (protein) chain 1: MAHMSHMLQQPSGSTPSNVGSSSSRTMSLMEKQKYIEDYDFPYCDESNKYEKVAKIGQGTFGEVFKAREKKGNKKFVAMKKVLMDNEKEGFPITALREIRILQLLKHENVVNLIEICRTKATATNGYRSTFYLVFDFCEHDLAGLLSNMNVKFSLGEIKKVMQQLLNGLYYIHSNKILHRDMKAANVLITKHGILKLADFGLARAFSIPKNESKNRYTNRVVTLWYRPPELLLGDRNYGPPVDMWGAGCIMAEMWTRSPIMQGNTEQQQLTFISQLCGSFTPDVWPGVEELELYKSIELPKNQKRRVKERLRPYVKDQTGCDLLDKLLTLDPKKRIDADTALNHDFFWTDPMPSDLSKMLSQHLQSMFEYLAQPRRSNQMRNYHQQLTTMNQKPQDNSMIDRVW chain 2: MSLLATPMPQAATASSSSSASAAASASGIPITANNNLPFEKDKIWYFSNDQLANLPSRRCGIKGDDELQYRQMTAYLIQEMGQRLQVSQLCINTAIVYMHRFYAFHSFTHFHRNSMASASLFLAAKVEEQPRKLEHVIRAANKCLPPTTEQNYAELAQELVFNENVLLQTLGFDVAIDHPHTHVVRTCQLVKACKDLAQTSYFLASNSLHLTSMCLQYRPTVVACFCIYLACKWSRWEIPQSTEGKHWFYYVDKTVSLDLLKQLTDEFIAIYEKSPARLKSKLNSIKAIAQGASNRTANSKDKPKEDWKITEMMKGYHSNITTPPELLNGNDSRDRDRDRERERERERDPSSLLPPPAMVPQQRRQDGGHQRSSSVSGVPGSSSSSSSSSHKMPNYPGGMPPEAHPDHKSKQPGYNNRMPSSHQRSSSSGLGSSGSGSQHSSSSSSSSSQQPGRPSMPVDYHKSSRGMPPVGVGMPPHGSHKMTSGSKPQQPQQQPVPHPSASNSSASGMSSKDKSQSNKMYPNAPPPYSNSAPQNPLMSRGGYPGASNGSQPPPPAGYGGHRSKSGSTVHGMPHFEQQLPYSQSQSYGHMQQQPVPQSQQQQMPPEASQHSLQSKNSLFSPEWPDIKKEPMSQSQPQLFNGLLPPPAPPGHDYKLNSHPRDKESPKKERLTPTKKDKHRPVMPPMGSGNSSSGSGSSKPMLPPHKKQIPHGGDLLTNPGESGSLKRPNEISGSQYGLNKLDEIDNSNMPREKLRKLDTTTGLPTYPNYEEKHTPLNMSNGIETTPDLVRSLLKESLCPSNASLLKPDALTMPGLKPPAELLEPMPAPATIKKEQGITPMTSLASGPAPMDLEVPTKQAGEIKEESSSKSEKKKKKDKHKHKEKDKSKDKTEKEERKKHKRDKQKDRSGSGGSKDSSLPNEPLKMVIKNPNGSLQAGASAPIKLKISKNKVEPNNYSAAAGLPGAIGYGLPPTTATTTSASIGAAAPVLPPYGAGGGGYSSSGGSSSGGSSKKKHSDRDRDKESKKNKSQDYAKYNGAGGGIFNPLGGAGAAPNMSGGMGAPMSTAVPPSMLLAPTGAVPPSAAGLAPPPMPVYNKK", "values": [{"measurement": "CTD kinase assay (phosphate incorporation, mobility shift)", "result": "incubation of P-TEFb with intact RNA polymerase II caused the incorporation of phosphate into the large subunit and a shift to the IIo form"}, {"measurement": "incorporation of label into the large subunit after chymotrypsin truncation of the CTD", "result": "the CTD-less polymerase (20 min digestion) was not detectably phosphorylated"}]}]}
